Experiments:
Experiment in all cases: holdup assay
Design in all cases: key: below the threshold = too weak to quantify, mostly under pKd 3.1 to 4
[1] = target: T1, RAPGEF6, Q8TEU7
T1 sequence (Q8TEU7 525-625, limits assumed, looked up): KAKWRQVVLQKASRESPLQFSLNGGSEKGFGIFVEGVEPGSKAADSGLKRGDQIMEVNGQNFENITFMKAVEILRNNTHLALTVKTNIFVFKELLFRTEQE

[2] = target: T2, GRIP1_2, Q9Y3R0
T2 sequence (Q9Y3R0 145-248, limits assumed, looked up): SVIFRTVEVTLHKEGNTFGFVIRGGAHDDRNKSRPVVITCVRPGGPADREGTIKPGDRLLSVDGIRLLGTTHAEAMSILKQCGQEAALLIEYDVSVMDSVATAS

[3] = target: T3, SNTB1, Q13884
T3 sequence (Q13884 107-205, limits assumed, looked up): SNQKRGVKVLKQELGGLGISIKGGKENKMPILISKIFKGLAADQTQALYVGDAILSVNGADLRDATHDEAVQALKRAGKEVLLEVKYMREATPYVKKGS

[4] = target: T4, DVL3, Q92997
T4 sequence (Q92997 244-331, limits assumed, looked up): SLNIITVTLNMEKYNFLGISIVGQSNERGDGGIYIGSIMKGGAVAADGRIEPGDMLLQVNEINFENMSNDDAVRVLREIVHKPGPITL

[5] = target: T5, HTRA4, P83105
T5 sequence (P83105 378-476, limits assumed, looked up): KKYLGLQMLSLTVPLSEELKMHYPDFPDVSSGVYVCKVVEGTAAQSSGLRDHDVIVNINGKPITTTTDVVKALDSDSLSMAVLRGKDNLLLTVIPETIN

[6] = target: IL16_1, Q14005
[7] = target: T6, RHPN1, Q8TCX5
T6 sequence (Q8TCX5 508-602, limits assumed, looked up): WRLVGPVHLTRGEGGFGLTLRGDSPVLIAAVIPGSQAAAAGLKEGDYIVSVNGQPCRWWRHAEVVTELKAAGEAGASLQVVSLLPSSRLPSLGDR

[8] = target: MAGI2_5, Q86UL8
[9] = target: T7, SNTG1, Q9NSN8
T7 sequence (Q9NSN8 52-150, limits assumed, looked up): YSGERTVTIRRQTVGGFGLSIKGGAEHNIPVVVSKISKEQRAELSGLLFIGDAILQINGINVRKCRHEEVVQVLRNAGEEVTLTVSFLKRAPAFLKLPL

[10] = target: NHERF4_1, Q86UT5-2
[11] = target: DLG2_3, Q15700
[12] = target: TJP2_1, Q9UDY2
[13] = target: DLG5_1, Q8TDM6
[14] = target: GRIP2_3, Q9C0E4
[15] = target: Inadl_10, Q8NI35
[16] = target: MAST2, Q6P0Q8
[17] = target: T8, SNTA1, Q13424
T8 sequence (Q13424 82-180, limits assumed, looked up): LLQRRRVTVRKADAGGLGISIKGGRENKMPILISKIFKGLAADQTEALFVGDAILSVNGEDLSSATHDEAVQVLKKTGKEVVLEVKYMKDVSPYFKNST

[18] = target: LIMK2, P53671
[19] = target: NHERF4_4, Q86UT5
[20] = target: T9, LIN7C, Q9NUP9
T9 sequence (Q9NUP9 88-185, limits assumed, looked up): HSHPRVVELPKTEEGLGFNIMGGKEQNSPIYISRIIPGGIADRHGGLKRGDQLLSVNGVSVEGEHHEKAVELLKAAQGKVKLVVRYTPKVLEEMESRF

[21] = target: MAGI2_2, Q86UL8
[22] = target: T10, APBA1_1, Q02410
T10 sequence (Q02410 651-752, limits assumed, looked up): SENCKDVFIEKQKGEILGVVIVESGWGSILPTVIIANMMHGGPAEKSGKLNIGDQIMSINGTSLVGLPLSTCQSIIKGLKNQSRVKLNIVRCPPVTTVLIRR

[23] = target: ARHGEF12, Q9NZN5-2
[24] = target: Inadl_8, Q8NI35
[25] = target: DLG1_2, Q12959
[26] = target: T11, TX1BP3, O14907
T11 sequence (O14907 10-122, limits assumed, looked up): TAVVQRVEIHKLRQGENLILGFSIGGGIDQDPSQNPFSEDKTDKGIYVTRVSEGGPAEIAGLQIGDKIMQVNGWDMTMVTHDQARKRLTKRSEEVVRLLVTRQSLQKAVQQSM

[27] = plain residues with an end cap or a label only (N-terminal biotin on a linker: ahx)
[28] = plain residues with an end cap or a label only (N-terminal biotin on a linker: ttds)
[29] = plain residues with an end cap or a label only (N-terminal biotin on a linker: gsgsgs; C-terminal amide)

DLG5_1, Q8TDM6, sequence (Q8TDM6 617-713): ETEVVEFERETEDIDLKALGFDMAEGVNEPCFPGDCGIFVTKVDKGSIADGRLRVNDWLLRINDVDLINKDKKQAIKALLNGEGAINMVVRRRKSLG
DLG1_2, Q12959, sequence (Q12959 314-412): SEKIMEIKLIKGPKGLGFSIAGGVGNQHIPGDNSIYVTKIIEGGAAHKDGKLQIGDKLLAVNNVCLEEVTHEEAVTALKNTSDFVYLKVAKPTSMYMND
Inadl_8, Q8NI35, sequence (Q8NI35 1425-1530): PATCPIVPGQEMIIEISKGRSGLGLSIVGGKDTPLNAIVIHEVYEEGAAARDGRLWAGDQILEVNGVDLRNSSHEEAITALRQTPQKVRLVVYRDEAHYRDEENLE
ARHGEF12, Q9NZN5-2, sequence (Q9NZN5 other isoform, or with tags, fused parts or gaps): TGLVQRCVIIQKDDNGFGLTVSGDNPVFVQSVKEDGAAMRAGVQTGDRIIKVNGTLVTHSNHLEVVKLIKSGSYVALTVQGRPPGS
IL16_1, Q14005, sequence (Q14005 210-306): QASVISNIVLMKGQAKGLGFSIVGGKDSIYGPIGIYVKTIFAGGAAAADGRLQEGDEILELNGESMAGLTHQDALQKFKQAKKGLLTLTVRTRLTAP
NHERF4_4, Q86UT5, sequence (Q86UT5 464-550): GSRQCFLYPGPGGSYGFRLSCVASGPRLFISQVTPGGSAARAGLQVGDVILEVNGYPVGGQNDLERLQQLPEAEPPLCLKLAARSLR
GRIP2_3, Q9C0E4, sequence (Q9C0E4 238-339): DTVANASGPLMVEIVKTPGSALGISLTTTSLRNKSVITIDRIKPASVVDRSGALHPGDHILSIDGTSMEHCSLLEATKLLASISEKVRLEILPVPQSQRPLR
MAGI2_2, Q86UL8, sequence (Q86UL8 410-522): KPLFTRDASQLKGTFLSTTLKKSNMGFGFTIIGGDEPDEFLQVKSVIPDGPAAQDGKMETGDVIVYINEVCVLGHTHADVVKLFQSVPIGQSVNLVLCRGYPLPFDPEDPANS
Inadl_10, Q8NI35, sequence (Q8NI35 1673-1763): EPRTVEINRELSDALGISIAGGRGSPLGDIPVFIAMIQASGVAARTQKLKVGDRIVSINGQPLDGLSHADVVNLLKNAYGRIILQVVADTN
TJP2_1, Q9UDY2, sequence (Q9UDY2 24-128): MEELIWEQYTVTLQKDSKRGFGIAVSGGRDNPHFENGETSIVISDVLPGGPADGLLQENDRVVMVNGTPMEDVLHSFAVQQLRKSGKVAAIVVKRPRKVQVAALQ
LIMK2, P53671, sequence (P53671 143-248): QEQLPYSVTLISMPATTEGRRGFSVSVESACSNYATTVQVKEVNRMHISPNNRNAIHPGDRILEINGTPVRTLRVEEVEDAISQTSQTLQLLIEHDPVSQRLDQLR
NHERF4_1, Q86UT5-2, sequence (Q86UT5 other isoform, or with tags, fused parts or gaps): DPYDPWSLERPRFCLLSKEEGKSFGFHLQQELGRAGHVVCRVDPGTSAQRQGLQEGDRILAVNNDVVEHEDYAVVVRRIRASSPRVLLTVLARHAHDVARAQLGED
MAST2, Q6P0Q8, sequence (Q6P0Q8 1099-1202): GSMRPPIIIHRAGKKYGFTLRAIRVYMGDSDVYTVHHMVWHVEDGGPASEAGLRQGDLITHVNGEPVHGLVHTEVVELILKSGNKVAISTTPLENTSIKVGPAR
MAGI2_5, Q86UL8, sequence (Q86UL8 915-1017): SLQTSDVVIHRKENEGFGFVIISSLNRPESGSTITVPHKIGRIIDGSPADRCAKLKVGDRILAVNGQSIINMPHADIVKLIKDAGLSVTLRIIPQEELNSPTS

B1: PSCDBP, O60759 (peptide)
chain: RAVEEEESRF
[1]; [27]
  pKd: below the threshold
[2]; [27]
  pKd: below the threshold
[3]; [27]
  pKd: below the threshold
[4]; [27]
  pKd: below the threshold
[5]; [27]
  pKd: below the threshold
[6]; [27]
  pKd: below the threshold
[7]; [27]
  pKd: 4.44
[8]; [27]
  pKd: 3.7
[9]; [27]
  pKd: below the threshold
[10]; [27]
  pKd: below the threshold
[11]; [27]
  pKd: below the threshold
[12]; [27]
  pKd: below the threshold
[13]; [27]
  pKd: below the threshold
[14]; [27]
  pKd: below the threshold
[15]; [27]
  pKd: below the threshold
[16]; [27]
  pKd: 4.45
[17]; [27]
  pKd: below the threshold
[18]; [27]
  pKd: below the threshold
[19]; [27]
  pKd: below the threshold
[20]; [27]
  pKd: below the threshold
[21]; [27]
  pKd: below the threshold
[22]; [27]
  pKd: below the threshold
[23]; [27]
  pKd: below the threshold
[24]; [27]
  pKd: below the threshold
[25]; [27]
  pKd: below the threshold
[26]; [27]
  pKd: below the threshold

B2: DOCK4, Q8N1I0 (peptide)
chain: RPLPRKVSQL
[1]; [28]
  pKd: below the threshold
[2]; [28]
  pKd: below the threshold
[3]; [28]
  pKd: 3.55
[4]; [28]
  pKd: below the threshold
[5]; [28]
  pKd: below the threshold
[6]; [28]
  pKd: below the threshold
[7]; [28]
  pKd: below the threshold
[8]; [28]
  pKd: below the threshold
[9]; [28]
  pKd: below the threshold
[10]; [28]
  pKd: 4.32
[11]; [28]
  pKd: 4.17
[12]; [28]
  pKd: below the threshold
[13]; [28]
  pKd: below the threshold
[14]; [28]
  pKd: below the threshold
[15]; [28]
  pKd: below the threshold
[16]; [28]
  pKd: 4.58
[17]; [28]
  pKd: below the threshold
[18]; [28]
  pKd: below the threshold
[19]; [28]
  pKd: below the threshold
[20]; [28]
  pKd: below the threshold
[21]; [28]
  pKd: 4.6
[22]; [28]
  pKd: below the threshold
[23]; [28]
  pKd: 4.62
[24]; [28]
  pKd: below the threshold
[25]; [28]
  pKd: 3.94
[26]; [28]
  pKd: 4.41

B3: MLLT4_int, P55196 (peptide)
chain: YGIVQETTFDLGGDIH
[1]; [29]
  pKd: below the threshold
[2]; [29]
  pKd: below the threshold
[3]; [29]
  pKd: 3.53
[4]; [29]
  pKd: below the threshold
[5]; [29]
  pKd: below the threshold
[6]; [29]
  pKd: below the threshold
[7]; [29]
  pKd: below the threshold
[8]; [29]
  pKd: below the threshold
[9]; [29]
  pKd: below the threshold
[10]; [29]
  pKd: below the threshold
[11]; [29]
  pKd: 3.77
[12]; [29]
  pKd: below the threshold
[13]; [29]
  pKd: below the threshold
[14]; [29]
  pKd: below the threshold
[15]; [29]
  pKd: below the threshold
[16]; [29]
  pKd: 4.01
[17]; [29]
  pKd: below the threshold
[18]; [29]
  pKd: below the threshold
[19]; [29]
  pKd: 3.84
[20]; [29]
  pKd: 3.85
[21]; [29]
  pKd: below the threshold
[22]; [29]
  pKd: below the threshold
[23]; [29]
  pKd: below the threshold
[24]; [29]
  pKd: below the threshold
[25]; [29]
  pKd: 4.06
[26]; [29]
  pKd: 3.83
